From patent US20200224203A1

What was measured:
[1] = target: modified htt protein after partial exon 12 skipping (human) (UniProt P42858); assay: cell-based or functional assay
[2] = target: huntingtin (htt) protein, full length, from human fibroblasts, P42858
huntingtin (htt) protein, full length, from human fibroblasts, P42858, sequence (P42858 whole entry): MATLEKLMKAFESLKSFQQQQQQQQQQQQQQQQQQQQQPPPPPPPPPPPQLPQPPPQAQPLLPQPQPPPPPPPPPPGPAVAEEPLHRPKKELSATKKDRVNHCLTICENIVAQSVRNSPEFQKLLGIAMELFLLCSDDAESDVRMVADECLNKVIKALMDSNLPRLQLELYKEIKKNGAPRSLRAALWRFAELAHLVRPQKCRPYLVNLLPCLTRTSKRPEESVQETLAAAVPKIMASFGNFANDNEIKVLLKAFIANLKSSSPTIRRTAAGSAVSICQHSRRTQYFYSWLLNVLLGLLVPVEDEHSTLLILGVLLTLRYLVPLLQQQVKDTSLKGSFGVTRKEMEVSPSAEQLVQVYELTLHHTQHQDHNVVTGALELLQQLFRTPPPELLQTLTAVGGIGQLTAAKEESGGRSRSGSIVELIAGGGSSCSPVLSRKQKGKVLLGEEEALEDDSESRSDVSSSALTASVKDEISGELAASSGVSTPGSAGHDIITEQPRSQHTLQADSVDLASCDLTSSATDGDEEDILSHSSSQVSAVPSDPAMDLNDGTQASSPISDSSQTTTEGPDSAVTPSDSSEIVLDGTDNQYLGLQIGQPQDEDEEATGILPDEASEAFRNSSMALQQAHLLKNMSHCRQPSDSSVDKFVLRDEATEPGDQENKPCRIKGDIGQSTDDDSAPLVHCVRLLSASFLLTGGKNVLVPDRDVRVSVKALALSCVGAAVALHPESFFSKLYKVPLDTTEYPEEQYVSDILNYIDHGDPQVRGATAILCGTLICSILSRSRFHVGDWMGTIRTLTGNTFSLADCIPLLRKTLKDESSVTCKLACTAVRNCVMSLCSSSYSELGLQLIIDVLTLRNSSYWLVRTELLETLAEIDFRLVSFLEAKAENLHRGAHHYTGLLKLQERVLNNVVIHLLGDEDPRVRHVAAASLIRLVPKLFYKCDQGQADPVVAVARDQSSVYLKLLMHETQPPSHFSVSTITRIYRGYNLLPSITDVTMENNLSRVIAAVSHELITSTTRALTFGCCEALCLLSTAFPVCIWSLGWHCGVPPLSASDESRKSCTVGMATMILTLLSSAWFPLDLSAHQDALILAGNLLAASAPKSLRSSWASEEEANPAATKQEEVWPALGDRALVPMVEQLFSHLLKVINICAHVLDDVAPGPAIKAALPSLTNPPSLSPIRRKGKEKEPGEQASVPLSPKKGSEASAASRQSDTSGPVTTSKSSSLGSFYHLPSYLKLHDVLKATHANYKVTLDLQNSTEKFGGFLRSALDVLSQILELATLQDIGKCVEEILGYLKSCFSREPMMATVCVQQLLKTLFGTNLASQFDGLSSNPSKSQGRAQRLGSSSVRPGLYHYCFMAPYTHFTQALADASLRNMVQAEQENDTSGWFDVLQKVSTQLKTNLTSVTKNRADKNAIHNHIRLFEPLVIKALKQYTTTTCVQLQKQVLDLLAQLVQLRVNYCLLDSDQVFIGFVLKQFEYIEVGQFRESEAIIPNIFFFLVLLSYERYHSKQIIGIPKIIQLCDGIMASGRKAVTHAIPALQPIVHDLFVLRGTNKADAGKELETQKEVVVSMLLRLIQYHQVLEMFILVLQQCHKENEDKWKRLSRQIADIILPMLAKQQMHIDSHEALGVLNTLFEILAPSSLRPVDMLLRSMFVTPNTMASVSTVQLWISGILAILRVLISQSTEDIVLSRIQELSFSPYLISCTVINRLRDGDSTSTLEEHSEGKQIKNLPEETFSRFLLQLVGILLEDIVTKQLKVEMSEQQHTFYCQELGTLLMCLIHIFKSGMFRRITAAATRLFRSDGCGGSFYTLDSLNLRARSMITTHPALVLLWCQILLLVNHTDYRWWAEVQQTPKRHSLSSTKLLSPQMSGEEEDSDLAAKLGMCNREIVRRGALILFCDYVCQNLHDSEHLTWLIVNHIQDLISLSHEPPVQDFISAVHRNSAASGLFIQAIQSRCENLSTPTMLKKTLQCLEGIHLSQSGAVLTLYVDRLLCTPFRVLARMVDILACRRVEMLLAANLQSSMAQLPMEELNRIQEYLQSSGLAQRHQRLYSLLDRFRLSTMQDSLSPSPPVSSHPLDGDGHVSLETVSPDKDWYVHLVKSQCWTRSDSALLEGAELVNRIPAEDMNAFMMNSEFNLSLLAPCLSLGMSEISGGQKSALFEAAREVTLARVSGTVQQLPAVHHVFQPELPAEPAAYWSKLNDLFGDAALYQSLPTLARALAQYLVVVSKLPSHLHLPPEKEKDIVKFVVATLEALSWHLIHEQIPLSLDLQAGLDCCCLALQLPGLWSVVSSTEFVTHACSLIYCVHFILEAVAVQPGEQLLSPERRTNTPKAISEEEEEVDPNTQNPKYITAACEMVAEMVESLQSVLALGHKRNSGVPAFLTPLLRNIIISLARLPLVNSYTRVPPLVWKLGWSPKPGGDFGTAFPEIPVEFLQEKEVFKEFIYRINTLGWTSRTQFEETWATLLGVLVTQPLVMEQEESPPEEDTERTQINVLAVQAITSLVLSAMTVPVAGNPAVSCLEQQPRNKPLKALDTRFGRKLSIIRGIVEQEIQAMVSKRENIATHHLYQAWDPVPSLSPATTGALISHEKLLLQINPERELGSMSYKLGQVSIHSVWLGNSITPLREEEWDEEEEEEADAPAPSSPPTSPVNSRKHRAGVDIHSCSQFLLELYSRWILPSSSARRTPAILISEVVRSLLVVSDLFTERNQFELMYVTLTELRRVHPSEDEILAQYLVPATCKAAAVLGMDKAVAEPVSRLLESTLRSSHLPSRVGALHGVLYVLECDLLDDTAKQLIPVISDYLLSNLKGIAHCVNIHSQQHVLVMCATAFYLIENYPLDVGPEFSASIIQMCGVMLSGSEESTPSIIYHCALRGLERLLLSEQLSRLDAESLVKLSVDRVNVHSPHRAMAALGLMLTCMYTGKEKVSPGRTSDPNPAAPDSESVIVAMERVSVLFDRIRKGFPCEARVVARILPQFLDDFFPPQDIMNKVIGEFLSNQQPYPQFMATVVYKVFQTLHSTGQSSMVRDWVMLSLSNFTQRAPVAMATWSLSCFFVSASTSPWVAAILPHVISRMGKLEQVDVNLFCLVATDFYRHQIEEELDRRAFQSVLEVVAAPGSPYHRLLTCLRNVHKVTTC

B1: recombinant active caspase-6 (protein)
chain: AFYKREMFDPAEKYKMDHRRRGIALIFNHERFFWHLTLPERRGTCADRDNLTRRFSDLGFEVKCFNDLKAEELLLKIHEVSTVSHADADCFVCVFLSHGEGNHIYAYDAKIEIQTLTGLFKGDKCHSLVGKPKIFIIQACRGNQHDVPVIPLDVVDNQTEKLDTNITEVDAASVYTLPAGADFLMCYSVAEGYYSHRETVNGSWYIQDLCEMLGKYGSSLEFTELLTLVNRKVSQRRVDFCKDPSAIGKKQVPCFASMLTKKLHFFPKSN
[1]
  reduction of 98 kDa N-terminal htt fragments in an in vitro caspase-6 cleavage assay (samples from cells treated with hHTTEx12 7): 31.9%
[2]
  N-terminal htt fragments detected by Western blot (4C8 antibody) in an in vitro caspase-6 cleavage assay: After samples were incubated with recombinant active caspase-6, N-terminal htt fragments of 98 kDa were detected
